The target in assay [1] is N1_(10-14)Fc, Notch1 EGF-like repeats 10–14 fused to human IgG Fc (human) (UniProt P46531). Briefly: mass photometry; purified Notch decoys; oligomeric state.
Assay [2] deals with Recombinant Fc-tagged hDLL4 (human) (UniProt Q9NR61). Briefly: SPR; Biacore T200, CM5 chip; hDLL4-Fc or hJAG1-Fc on the chip (amine coupling by the results; captured after immobilising human IgG Fc by the methods), up to 20,000 RU; N1_(10-14)Fc or N4_(10-14)Fc as analyte, multi-cycle kinetics; HBS-N (10 mM HEPES, 150 mM NaCl), 0.005% Tween 20, 1 mM CaCl2, 2 mM MgCl2, pH 7.4; 25 °C, 25 μl/min; KD = kd/ka. Background: In SPR one partner is held on a chip, and binding of the other changes the refractive index at the surface.
Sequence of Recombinant Fc-tagged hDLL4 (human) (Q9NR61 27-529): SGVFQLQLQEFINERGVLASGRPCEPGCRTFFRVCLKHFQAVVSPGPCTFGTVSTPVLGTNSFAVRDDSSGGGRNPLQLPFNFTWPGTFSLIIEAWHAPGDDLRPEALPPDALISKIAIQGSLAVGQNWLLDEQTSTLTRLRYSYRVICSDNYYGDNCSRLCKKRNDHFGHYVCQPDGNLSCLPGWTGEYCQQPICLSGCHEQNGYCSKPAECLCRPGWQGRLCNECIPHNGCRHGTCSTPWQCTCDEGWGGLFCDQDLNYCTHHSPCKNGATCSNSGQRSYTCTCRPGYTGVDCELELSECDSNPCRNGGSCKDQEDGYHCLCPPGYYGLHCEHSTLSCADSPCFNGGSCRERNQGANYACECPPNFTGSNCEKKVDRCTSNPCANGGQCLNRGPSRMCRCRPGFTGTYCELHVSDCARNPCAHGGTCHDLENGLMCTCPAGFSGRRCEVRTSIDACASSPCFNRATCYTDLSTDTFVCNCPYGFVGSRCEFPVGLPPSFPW

The target of assay [3] is N4_(10-14)Fc, Notch4 EGF-like repeats 10–14 fused to human IgG Fc (human) (UniProt Q99466). Description: mass photometry; purified Notch decoys; oligomeric state.

The term stoichiometry N denotes a count of units in the complex or per binding partner. Substance “N1_(10-14)Fc, Notch1 EGF-like repeats 10–14 fused to human IgG Fc (from UniProt P46531 19-2555) (Fc fusion)” had a stoichiometry N in assay [1] of 2.

The term Kd denotes the equilibrium constant for the complex coming apart. For the substance “N4_(10-14)Fc, Notch4 EGF-like repeats 10–14 fused to human IgG Fc (from UniProt Q99466 24-2003) (Fc fusion)”, in assay [2], the Kd is 963 nM. In addition, the stoichiometry N in assay [3] is 2.

The record behind these values is paper PMC10119233.
